Assay results taken from paper PMC8955265 (2022).
Where no end group is shown, it is not given here. [ ]: non-standard residue; d: D form. pT = C[C@@H](OP(=O)(O)O)[C@H](N)C(=O)O; pS = N[C@@H](COP(=O)(O)O)C(=O)O; CF = carboxyfluorescein

Experiments:
Skp1-FBXW7 complex [1] = molecular target: T1, Skp1-FBXW7 complex (human, UniProt P63208 1-149; Q969H0 263-707); experiment: FP; competition, unlabeled peptide
Skp1-FBXW7 complex [2] = molecular target: T1, Skp1-FBXW7 complex; experiment: FP; direct titration

T1 sequence (P63208 1-149, chain 1 of 2): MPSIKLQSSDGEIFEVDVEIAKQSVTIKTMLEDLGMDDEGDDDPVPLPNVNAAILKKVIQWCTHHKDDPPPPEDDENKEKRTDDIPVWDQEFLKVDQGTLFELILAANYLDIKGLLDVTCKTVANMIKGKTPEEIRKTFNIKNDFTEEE
T1 sequence (Q969H0 263-707, chain 2 of 2): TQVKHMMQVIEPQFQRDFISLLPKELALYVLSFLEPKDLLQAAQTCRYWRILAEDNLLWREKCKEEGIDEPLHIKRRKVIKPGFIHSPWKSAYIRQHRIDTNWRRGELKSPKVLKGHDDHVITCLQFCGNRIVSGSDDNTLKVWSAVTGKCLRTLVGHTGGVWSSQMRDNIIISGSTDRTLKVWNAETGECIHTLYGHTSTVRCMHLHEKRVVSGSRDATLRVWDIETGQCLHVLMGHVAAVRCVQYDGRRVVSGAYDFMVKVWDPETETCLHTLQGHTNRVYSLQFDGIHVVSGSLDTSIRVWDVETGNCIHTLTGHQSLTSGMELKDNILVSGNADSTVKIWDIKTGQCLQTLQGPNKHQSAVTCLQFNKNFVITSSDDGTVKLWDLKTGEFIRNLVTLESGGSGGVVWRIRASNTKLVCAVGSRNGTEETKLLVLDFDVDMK

Kd (Skp1-FBXW7 complex [1]) [nM] | Kd (Skp1-FBXW7 complex [2]) [nM] | Binder
15.9 | – | PSGLL[pT]PPQ[pS]GKKQ (also: N-terminal carboxyfluorescein on the labelled probe form) [CCNE]
– | 2.8 | {CF}-PSGLL[pT]PPQ[pS]GKKQ [carboxyfluorescein (CF) labeled CCNE peptide (CF-PSGLLpTPPQpSGKKQ)]
